Tests used:
FANCI R1285Q;FANCD2 (D2) = FANCI R1285Q;FANCD2 (D2) (Homo sapiens;Homo sapiens, UniProt Q9NVI1;Q9BXW9 1-1328;1-1451, R1285Q|); assay: PIFE; minor, insignificant reduction vs WT I+D2; Kd only in bar graph; EMSA: 16 mM Tris-HCl pH 8, 150 mM NaCl, 4.4% glycerol, 0.07 mg/ml BSA, 7 mM DTT, 4 mM EDTA, 2 nM DNA, on ice 20 min, 4% PAGE in 0.5x TBE (4 C). PIFE: 150 mM NaCl, 125 nM DNA, 22 C.; settings: protein: recombinant;recombinant; tags: His6 (N-term);FLAG (EMSA); His6-3C, cleaved in some cases; copies: 1;1; label: 5' IRDye700 on both strands; blunt
Sequence of FANCI R1285Q;FANCD2 (D2) (Q9NVI1 whole entry R1285Q, chain 1 of 2): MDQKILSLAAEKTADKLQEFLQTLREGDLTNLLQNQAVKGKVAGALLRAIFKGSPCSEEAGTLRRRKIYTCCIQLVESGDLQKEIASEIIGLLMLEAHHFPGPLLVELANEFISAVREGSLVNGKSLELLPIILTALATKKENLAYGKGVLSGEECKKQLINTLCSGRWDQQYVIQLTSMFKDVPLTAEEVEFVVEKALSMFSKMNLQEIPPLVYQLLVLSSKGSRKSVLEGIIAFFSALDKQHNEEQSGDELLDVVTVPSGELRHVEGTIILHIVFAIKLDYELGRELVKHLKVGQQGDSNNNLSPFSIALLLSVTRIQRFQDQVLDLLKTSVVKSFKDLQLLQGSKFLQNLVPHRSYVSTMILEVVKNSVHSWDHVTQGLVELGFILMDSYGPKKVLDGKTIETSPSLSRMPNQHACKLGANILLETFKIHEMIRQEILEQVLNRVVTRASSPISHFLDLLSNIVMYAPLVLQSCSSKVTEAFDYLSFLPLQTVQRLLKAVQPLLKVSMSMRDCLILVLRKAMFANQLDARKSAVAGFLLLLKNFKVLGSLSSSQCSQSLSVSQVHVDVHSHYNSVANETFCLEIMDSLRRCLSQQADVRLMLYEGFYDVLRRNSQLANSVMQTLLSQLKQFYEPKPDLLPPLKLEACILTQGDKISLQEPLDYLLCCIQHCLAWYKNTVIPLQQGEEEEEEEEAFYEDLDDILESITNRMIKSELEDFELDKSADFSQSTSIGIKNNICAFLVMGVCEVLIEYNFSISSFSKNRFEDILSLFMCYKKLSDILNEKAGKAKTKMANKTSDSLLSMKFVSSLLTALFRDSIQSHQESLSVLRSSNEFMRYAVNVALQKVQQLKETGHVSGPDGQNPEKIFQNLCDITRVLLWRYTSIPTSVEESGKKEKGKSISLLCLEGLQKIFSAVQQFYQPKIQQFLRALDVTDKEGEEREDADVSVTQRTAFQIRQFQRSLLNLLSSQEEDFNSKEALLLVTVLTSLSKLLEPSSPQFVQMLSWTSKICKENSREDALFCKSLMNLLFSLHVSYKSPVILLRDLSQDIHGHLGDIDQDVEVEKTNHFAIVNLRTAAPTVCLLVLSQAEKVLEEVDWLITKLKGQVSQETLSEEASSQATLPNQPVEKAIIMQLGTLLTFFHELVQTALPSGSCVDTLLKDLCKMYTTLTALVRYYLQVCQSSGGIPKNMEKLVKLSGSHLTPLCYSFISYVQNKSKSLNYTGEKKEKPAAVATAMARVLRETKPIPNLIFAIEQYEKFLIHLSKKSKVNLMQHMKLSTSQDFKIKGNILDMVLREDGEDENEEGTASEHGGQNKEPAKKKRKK
Sequence of FANCI R1285Q;FANCD2 (D2) (Q9BXW9 whole entry, chain 2 of 2): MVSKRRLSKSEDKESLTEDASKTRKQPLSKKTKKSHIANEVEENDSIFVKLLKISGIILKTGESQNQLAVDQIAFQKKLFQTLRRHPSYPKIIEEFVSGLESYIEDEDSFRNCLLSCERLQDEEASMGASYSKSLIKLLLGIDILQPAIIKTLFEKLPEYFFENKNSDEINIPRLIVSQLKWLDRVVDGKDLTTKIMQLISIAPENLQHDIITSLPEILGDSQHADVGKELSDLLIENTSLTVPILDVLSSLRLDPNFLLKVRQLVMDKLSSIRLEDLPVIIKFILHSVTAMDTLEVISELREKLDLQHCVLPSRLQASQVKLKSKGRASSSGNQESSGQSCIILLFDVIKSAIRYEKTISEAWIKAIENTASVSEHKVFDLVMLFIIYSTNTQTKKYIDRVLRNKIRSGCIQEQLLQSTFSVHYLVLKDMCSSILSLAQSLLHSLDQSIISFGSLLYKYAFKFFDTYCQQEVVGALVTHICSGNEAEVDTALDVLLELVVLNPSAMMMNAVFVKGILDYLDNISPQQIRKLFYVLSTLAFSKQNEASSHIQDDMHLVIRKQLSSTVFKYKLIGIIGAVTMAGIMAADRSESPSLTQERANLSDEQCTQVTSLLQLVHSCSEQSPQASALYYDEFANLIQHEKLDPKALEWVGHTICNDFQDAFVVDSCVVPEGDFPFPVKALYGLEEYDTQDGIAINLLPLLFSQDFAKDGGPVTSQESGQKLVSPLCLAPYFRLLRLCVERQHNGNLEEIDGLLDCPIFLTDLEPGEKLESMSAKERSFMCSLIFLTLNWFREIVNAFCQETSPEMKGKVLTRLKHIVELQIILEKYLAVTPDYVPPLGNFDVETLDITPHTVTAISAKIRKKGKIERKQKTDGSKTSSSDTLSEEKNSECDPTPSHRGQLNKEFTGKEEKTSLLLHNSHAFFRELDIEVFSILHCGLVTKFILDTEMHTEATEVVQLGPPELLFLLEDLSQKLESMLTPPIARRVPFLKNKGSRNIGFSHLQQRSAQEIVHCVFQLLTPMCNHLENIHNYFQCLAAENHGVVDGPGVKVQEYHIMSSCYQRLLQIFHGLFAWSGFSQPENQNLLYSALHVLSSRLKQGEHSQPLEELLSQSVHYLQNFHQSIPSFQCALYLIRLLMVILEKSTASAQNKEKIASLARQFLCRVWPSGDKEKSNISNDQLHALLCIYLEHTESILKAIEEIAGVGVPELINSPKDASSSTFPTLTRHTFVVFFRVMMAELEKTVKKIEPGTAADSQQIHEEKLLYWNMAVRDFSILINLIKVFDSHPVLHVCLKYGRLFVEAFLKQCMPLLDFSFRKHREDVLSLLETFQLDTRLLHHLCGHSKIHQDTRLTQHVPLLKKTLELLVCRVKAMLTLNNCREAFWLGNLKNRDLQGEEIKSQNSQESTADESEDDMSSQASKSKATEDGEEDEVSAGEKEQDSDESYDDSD

FANCI (I);FANCD2 (D2) = FANCI (I);FANCD2 (D2) (Homo sapiens;Homo sapiens, UniProt Q9NVI1;Q9BXW9 1-1328;1-1451, |); assay: PIFE; 150 mM NaCl; Kd only in bar graph; EMSA: 16 mM Tris-HCl pH 8, 150 mM NaCl, 4.4% glycerol, 0.07 mg/ml BSA, 7 mM DTT, 4 mM EDTA, 2 nM DNA, on ice 20 min, 4% PAGE in 0.5x TBE (4 C). PIFE: 150 mM NaCl, 125 nM DNA, 22 C.; settings: protein: recombinant;recombinant; tags: His6-TEV-V5 (N-term); His6-3C, cleaved in some cases; copies: 1;1; label: 5' IRDye700 on both strands; blunt
Sequence of FANCI (I);FANCD2 (D2) (Q9NVI1 whole entry, chain 1 of 2): as the sequence (Q9NVI1 whole entry R1285Q, chain 1 of 2) above, with Q1285R counted along it
Sequence of FANCI (I);FANCD2 (D2) (Q9BXW9 whole entry, chain 2 of 2): as the sequence (Q9BXW9 whole entry, chain 2 of 2) above

B1: ds32F (dsDNA)
DNA 1: CGATCGGTAACGTATGCTGAATCTGGTGCTGG
DNA 2: CCAGCACCAGATTCAGCATACGTTACCGATCG
- binding result (FANCI R1285Q;FANCD2 (D2)): binds
- binding result (FANCI (I);FANCD2 (D2)): binds

Source: paper PMC7332966
